According to patent US20250276081A1, “Mucin-Active Proteases and Methods of Use” (priority 2022, published 2025):

Tests used:
[1] = Complete blood count (CBC) after StcE injection; type: in vivo, mouse; conditions: 3 h, C57BL/6, n=1
Description: In vivo toxicity studies. 10-week-old C57BL/6 mice (bred in-house) were injected with PBS or StcE (0.15 mg/kg or 15 mg/kg) via intravenous injection. 9-week-old female BALB/cJ mice (Jackson Labs) were injected with PBS or 10 mg/kg αHER2-eStcE via intraperitoneal injection. Mice were submitted to the Animal Diagnostic Lab at Stanford University for necropsy and complete blood count (CBC) analyses 3 h post injection.

[2] = test system: leukemia cell lines (K562, CCRF-CEM, CCRF-HSB-2); assay: NK cell killing assay with mucinase-treated leukemia cell lines; type: cell-based, human
Description: NK cell isolation. PBMC aliquots were quickly thawed and diluted in 10 mL of RPMI containing DNAase to break up cell aggregates. Cells were incubated at 5% CO2, 37° C. for 30 min and subsequently counted in duplicate. Cells were then spun down at 600× g and resuspended in RPMI to a final cell concentration of 50×10^6 cells/mL. Isolation of NK cells was performed according to manufacturer's instructions using an NK cell magnetic isolation kit (Stem Cell Technologies). NK cells were cultured for at least 24 h before conducting experiments. For killing experiments, NK cells were cultured for 24 h in complete media containing 0.2-0.5 μg/mL IL-2 (BioLegend).
NK cell killing assays. Target cells were harvested by centrifugation and resuspended in serum-free RPMI containing 5 μM Cell Tracker Far Red (Thermo Fisher Scientific) at 5×10^5 cells/mL. Cells were then incubated for 30 min at 37° C.; where indicated, cells were treated with […] StcE. Following staining and StcE treatment, cells were spun down, washed twice with PBS containing 1 mM EDTA, and resuspended in complete media. Cells were diluted to 1×10^5 cells/mL in complete media containing 100 nM Sytox Green, and 100 μL of cell suspension was aliquoted into a flat bottom 96-well plate. Separately, NK cells were diluted to various cell concentrations to generate the indicated effector: target ratios in complete media containing 100 nM Sytox Green. Where indicated, these cell suspensions were treated with 20 nM StcE for 30 min, washed twice with PBS containing 1 mM ETDA, and resuspended in complete media containing 100 nM Sytox Green. 100 μL of these cell suspensions was then mixed with the target cell suspensions to generate a total volume of 200 μL. Cells were incubated at 37° C. for 4 h and analyzed by flow cytometry.

[3] = target: T1, cell surface CD43 (K562, CCRF-CEM, CCRF-HSB-2 cells) (Homo sapiens, UniProt P16150); assay: CD43 flow cytometry of leukemia cell lines; type: cell-based; conditions: 50 nM StcE, 1 h
T1 construct: endogenous in cells; host or cells: K562, CCRF-CEM, CCRF-HSB-2
T1 sequence (P16150 20-400): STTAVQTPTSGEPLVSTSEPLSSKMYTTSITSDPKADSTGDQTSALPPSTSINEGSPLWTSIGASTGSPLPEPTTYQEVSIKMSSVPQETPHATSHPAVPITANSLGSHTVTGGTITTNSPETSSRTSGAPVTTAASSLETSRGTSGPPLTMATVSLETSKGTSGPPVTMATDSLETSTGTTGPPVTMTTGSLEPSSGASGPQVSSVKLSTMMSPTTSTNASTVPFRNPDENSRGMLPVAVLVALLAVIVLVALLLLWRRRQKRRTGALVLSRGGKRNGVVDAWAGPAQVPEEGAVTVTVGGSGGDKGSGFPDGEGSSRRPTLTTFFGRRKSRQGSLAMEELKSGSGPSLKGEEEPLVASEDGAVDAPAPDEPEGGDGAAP
Description: CD43 and Siglec-7-Fc flow cytometry. 1×10^6 K562, CCRF-CEM, or CCRF-HSB-2 cells growing in log phase were harvested, resuspended in 1 mL of serum-free RPMI, and treated with either vehicle or 50 nM StcE for 1 h. Cells were subsequently spun down at 600× g and washed twice in PBS. Cells were then resuspended in FACS buffer (0.5% BSA in PBS) at 1×10^6 cells/mL and aliquoted into a V-bottom 96-well plate (Corning) at 1×10^5 cells/well. For staining, a precomplex solution of 1 μg/mL Siglec-7-Fc (R&D Systems) and 1 μg/mL Alexa Fluor 488-antihFc was made up in FACS buffer and incubated on ice for 1 h. Alexa Fluor 647 CD43/sialophorin antibody (MEM-59 clone) (Novus Biologicals) was subsequently added to the precomplex solution prior to staining. Cells were stained in 100 μL of staining solution for 30 min, washed twice with FACS buffer, and analyzed by flow cytometry using a BD Accuri C6 plus.

[4] = test system: mucins in plasma and tissues; assay: In vivo mucin degradation Western blot after StcE; parameters: species or system mouse; conditions: 0.25 mg/kg

StcE: secreted protease of C1 esterase inhibitor, zinc metalloprotease pan mucinase from E. coli O157:H7; SEQ ID NO:1
Basophil absolute ([1]; StcE 0.15 mg/kg I.V.): 0 | Basophils ([1]; StcE 0.15 mg/kg I.V.): 0% | Eosinophil absolute ([1]; StcE 0.15 mg/kg I.V.): 44 | Eosinophils ([1]; StcE 0.15 mg/kg I.V.): 1% | Hematocrit (HCT) ([1]; StcE 0.15 mg/kg I.V.): 45.5% | Hemoglobin (HGB) ([1]; StcE 0.15 mg/kg I.V.): 14 gm/dL | Immature reticulocyte fraction (IRF) ([1]; StcE 0.15 mg/kg I.V.): 54.9% | Low fluorescence reticulocytes (LFR) ([1]; StcE 0.15 mg/kg I.V.): 45.1% | Lymphocyte absolute ([1]; StcE 0.15 mg/kg I.V.): 4085 | Lymphocytes ([1]; StcE 0.15 mg/kg I.V.): 92% | MHC concentration (MCHC) ([1]; StcE 0.15 mg/kg I.V.): 30.8 g/dL | Mean corpuscular hemoglobin (MCH) ([1]; StcE 0.15 mg/kg I.V.): 14.3 pg | Mean corpuscular volume (MCV) ([1]; StcE 0.15 mg/kg I.V.): 46.5 fL | Mean platelet volume (MPV) ([1]; StcE 0.15 mg/kg I.V.): 7.3 fL | Medium fluorescence reticulocytes (MFR) ([1]; StcE 0.15 mg/kg I.V.): 18.7% | Monocyte absolute ([1]; StcE 0.15 mg/kg I.V.): 133 | Monocytes ([1]; StcE 0.15 mg/kg I.V.): 3% | Neutrophil absolute ([1]; StcE 0.15 mg/kg I.V.): 178 | Neutrophils ([1]; StcE 0.15 mg/kg I.V.): 4% | Platelet count ([1]; StcE 0.15 mg/kg I.V.): 1345 K/μL | Platelet distribution width (PDW) ([1]; StcE 0.15 mg/kg I.V.): 8.9 fL | Platelet estimate ([1]; StcE 0.15 mg/kg I.V.): Adequate | Platelet-large cell ratio (P-LCR) ([1]; StcE 0.15 mg/kg I.V.): 8.7% | RBC morphology ([1]; StcE 0.15 mg/kg I.V.): Normal | Red blood cell (RBC) ([1]; StcE 0.15 mg/kg I.V.): 9.78 M/μL | Red cell distribution width (RDW) ([1]; StcE 0.15 mg/kg I.V.): 19.2% | Reticulocyte absolute ([1]; StcE 0.15 mg/kg I.V.): 442056 µL⁻¹ | Reticulocyte count ([1]; StcE 0.15 mg/kg I.V.): 4.52% | White blood cell (WBC) ([1]; StcE 0.15 mg/kg I.V.): 4.44 K/μL | Basophil absolute ([1]; StcE 15 mg/kg I.V.): 0 | Basophils ([1]; StcE 15 mg/kg I.V.): 0% | Eosinophil absolute ([1]; StcE 15 mg/kg I.V.): 39 | Eosinophils ([1]; StcE 15 mg/kg I.V.): 1% | Hematocrit (HCT) ([1]; StcE 15 mg/kg I.V.): 58.9% | Hemoglobin (HGB) ([1]; StcE 15 mg/kg I.V.): 18.3 gm/dL | Immature reticulocyte fraction (IRF) ([1]; StcE 15 mg/kg I.V.): 52.3% | Low fluorescence reticulocytes (LFR) ([1]; StcE 15 mg/kg I.V.): 47.7% | Lymphocyte absolute ([1]; StcE 15 mg/kg I.V.): 1458 | Lymphocytes ([1]; StcE 15 mg/kg I.V.): 37% | MHC concentration (MCHC) ([1]; StcE 15 mg/kg I.V.): 31.1 g/dL | Mean corpuscular hemoglobin (MCH) ([1]; StcE 15 mg/kg I.V.): 14 pg | Mean corpuscular volume (MCV) ([1]; StcE 15 mg/kg I.V.): 44.9 fL | Mean platelet volume (MPV) ([1]; StcE 15 mg/kg I.V.): 6.8 fL | Medium fluorescence reticulocytes (MFR) ([1]; StcE 15 mg/kg I.V.): 28% | Monocyte absolute ([1]; StcE 15 mg/kg I.V.): 315 | Monocytes ([1]; StcE 15 mg/kg I.V.): 8% | Neutrophil absolute ([1]; StcE 15 mg/kg I.V.): 2128 | Neutrophils ([1]; StcE 15 mg/kg I.V.): 54% | Platelet count ([1]; StcE 15 mg/kg I.V.): 82 K/μL | Platelet distribution width (PDW) ([1]; StcE 15 mg/kg I.V.): 7.2 fL | Platelet estimate ([1]; StcE 15 mg/kg I.V.): Decreased | Platelet-large cell ratio (P-LCR) ([1]; StcE 15 mg/kg I.V.): 5.5% | RBC morphology ([1]; StcE 15 mg/kg I.V.): Normal | Red blood cell (RBC) ([1]; StcE 15 mg/kg I.V.): 13.11 M/μL | Red cell distribution width (RDW) ([1]; StcE 15 mg/kg I.V.): 22.2% | Reticulocyte absolute ([1]; StcE 15 mg/kg I.V.): 860016 µL⁻¹ | Reticulocyte count ([1]; StcE 15 mg/kg I.V.): 6.56% | White blood cell (WBC) ([1]; StcE 15 mg/kg I.V.): 3.94 K/μL | NK cell killing after StcE treatment of the NK cells ([2]; NK cells treated with StcE): no effect relative to untreated control | NK cell killing of StcE-treated leukemia cells ([2]; target cells treated with StcE, 4 h with NK cells): increased NK cell surveillance | Cytotoxicity of StcE treatment of leukemia cell lines ([2]; without NK cells, n=3): statistically significant baseline toxicity increase | Cell surface CD43 level [3]: loss of cell surface CD43 | Digestion of mucins in plasma and tissues [4]: digested mucins throughout the body
